Data from patent US20220380463A1 (Adimab, published 2022).
Residue numbers refer to the chain shown, from its start.

Legend:
[1] = target: T1, human CD3 on CD3+ Jurkat cells (human, UniProt P07766 23-207); test: flow cytometry on CD3+ Jurkat cells, ratio of MFI at pH 6.0 to pH 7.4
T1 construct: whole, on cells; Native CD3 complex on cells; the other CD3 chains are not specified for this assay; also called Human CD3+ Jurkat
Procedure: (§1) Specificity of the anti-CD3 antibodies for human CD3+ Jurkat cells compared to CHO-S cells at pH 6.0 and 7.4 was determined using a FACS cell binding assay. Briefly, CD3+ human Jurkat cells and CHO-S cells were thawed and washed with cold PBSF buffer, pH 7.4 (PBS+0.1% BSA, pH 7.4). About 200,000 cells were aliquoted per well of a 96-well plate and pelleted by centrifugation (5 minutes at 500×g). The cells were washed with either PBSF pH 7.4 or PBSF pH 6.0 (PBS+0.1% BSA, pH 6.0), and then resuspended in 100 ul in either PBSF pH 7.4 or PBSF pH 6.0 with IgG antibody produced in yeast (100 nM). The mixture (cells+antibody) was incubated for 20 minutes on ice, then washed twice with either PBSF pH 7.4 or PBSF pH 6.0. Cells were resuspended in 50 ul of propidium iodide (1:500 dilution) and anti-human IgG-RPE (1:100 dilution) prepared in either PBSF pH 7.4 or PBSF pH 6.0, then incubated for 20 minutes on ice in the dark before cells were washed twice with either PBSF pH 7.4 or PBSF pH 6.0. Binding was analyzed on FACS Canto II.
(§2) Cell binding assays. CD3+ human Jurkat cells (ATCC) and CHO-S cells (Invitrogen/ThermoFisher) were thawed and washed with cold PBSF buffer, pH 7.4 (PBS+0.1% BSA, pH 7.4). About 200,000 cells were aliquoted per well of a 96-well plate (FACS Assay Plate VWR BD 353263) and pelleted by centrifugation (5 minutes at 500×g). The cells were washed with either PBSF pH 7.4 or PBSF pH 6.0 (PBS+0.1% BSA, pH 6.0), and then resuspended in 100 ul in either PBSF pH 7.4 or PBSF pH 6.0 with IgG antibody (100 nM) produced in yeast as described above. The mixture (cells+antibody) was incubated for 20 minutes on ice, then washed twice with either PBSF pH 7.4 or PBSF pH 6.0. Cells were resuspended in 50 ul of propidium iodide (Roche; 1:500 dilution) and anti-human IgG-RPE (Southern Biotech; 1:100 dilution) prepared in either PBSF pH 7.4 or PBSF pH 6.0, then incubated for 20 minutes on ice in the dark before cells were washed twice with either PBSF pH 7.4 or PBSF pH 6.0. Binding was analyzed on FACS Canto II.

[2] = target: T1, human CD3 on CD3+ Jurkat cells; test: flow cytometry, 100 nM IgG on CD3+ Jurkat cells, pH 7.4
Procedure: as §1, §2

[3] = target: T1, human CD3 on CD3+ Jurkat cells; test: flow cytometry, 100 nM IgG on CD3+ Jurkat cells, pH 6.0
Procedure: as §1, §2

T1 sequence (P07766 23-207): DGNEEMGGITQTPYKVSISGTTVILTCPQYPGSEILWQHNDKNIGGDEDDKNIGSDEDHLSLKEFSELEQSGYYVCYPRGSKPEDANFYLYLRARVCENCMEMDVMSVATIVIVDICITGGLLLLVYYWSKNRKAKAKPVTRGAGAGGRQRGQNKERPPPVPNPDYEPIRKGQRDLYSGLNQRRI

B1: SAD10318_P01_D01 (ADI-48576) (antibody, V domains shown)
VH: QVQLVQSGAEVKKPGASVKVSCKASGFNIKDYYMHWVRQAPGQRLEWMGWIDLENANTIYDAKFQGRVTITRDTSASTAYMELSSLRSEDTAVYYCARDAYHRYFYDHWGQGTLVTVSS
VL: DIVMTQSPDSLAVSLGERATINCKSSQSLLNAHTGKNHLAWYQQKPGQPPKLLIYWASTRESGVPDRFSGSGSGTDFTLTISSLQAEDVAVYYCKQSHSHRTFGGGTKVEIK
notes: IgG; also called Ab182
MFI pH 6.0/MFI pH 7.4 [1]: 20.1 | MFI pH 7.4 [2]: 42 MFI | MFI pH 6.0 [3]: 849 MFI

B2: SAD10318_P03_C08 (ADI-48603) (antibody, V domains shown)
VH: B1 VH with A100H, H102G, R103H, H108V
VL: B1 VL with N31H, H33R
notes: IgG; also called Ab197
MFI pH 6.0/MFI pH 7.4 [1]: 3.5 | MFI pH 7.4 [2]: 51 MFI | MFI pH 6.0 [3]: 177 MFI

B3: SAD10318_P02_D05 (ADI-48598) (antibody, V domains shown)
VH: B1 VH with A100H, H102G, R103H, H108V
VL: B1 VL with H33R, H98Y, S99H
notes: IgG; also called Ab181
MFI pH 6.0/MFI pH 7.4 [1]: 8.6 | MFI pH 7.4 [2]: 33 MFI | MFI pH 6.0 [3]: 279 MFI

B4: SAD10318_P01_D02 (ADI-48584) (antibody, V domains shown)
VH: B1 VH with Y101H, H108V
VL: B1 VL with H33R
notes: IgG; also called Ab3
MFI pH 6.0/MFI pH 7.4 [1]: 23.9 | MFI pH 7.4 [2]: 91 MFI | MFI pH 6.0 [3]: 2180 MFI

B5: SAD10318_P03_A09 (ADI-48608) (antibody, V domains shown)
VH: B1 VH with A100H, H102G
VL: B1 VL with H33R, K36H, H98Y, S99H
notes: IgG; also called Ab203
MFI pH 6.0/MFI pH 7.4 [1]: 4.5 | MFI pH 7.4 [2]: 45 MFI | MFI pH 6.0 [3]: 203 MFI

B6: SAD10318_P01_F01 (ADI-48578) (antibody, V domains shown)
VH: B1 VH with H102G, R103H
VL: B1 VL with H98Y, S99H
notes: IgG; also called Ab204
MFI pH 6.0/MFI pH 7.4 [1]: 11.7 | MFI pH 7.4 [2]: 36 MFI | MFI pH 6.0 [3]: 418 MFI

B7: SAD10318_P02_G06 (ADI-48600) (antibody, V domains shown)
VH: B1 VH with R98H, H102G, R103H, H108V
VL: B1 VL with N31H, A32T, H33R, H38Y, H98Y, H100R
notes: IgG; also called Ab189
MFI pH 6.0/MFI pH 7.4 [1]: 2.2 | MFI pH 7.4 [2]: 1340 MFI | MFI pH 6.0 [3]: 2900 MFI

B8: SAD10318_P02_A05 (ADI-48595) (antibody, V domains shown)
VH: B1 VH with A9T
VL: B1 VL with A32S, H38Y, H98Y, H100R
notes: IgG; also called Ab178
MFI pH 6.0/MFI pH 7.4 [1]: 1.2 | MFI pH 7.4 [2]: 4960 MFI | MFI pH 6.0 [3]: 5980 MFI

B9: SAD10318_P03_D09 (ADI-48610) (antibody, V domains shown)
VH: B1 VH with Y33H, Y101H, H108V
VL: B1 VL
notes: IgG; also called Ab206
MFI pH 6.0/MFI pH 7.4 [1]: 5 | MFI pH 7.4 [2]: 72 MFI | MFI pH 6.0 [3]: 361 MFI

B10: SAD10318_P01_G02 (ADI-48586) (antibody, V domains shown)
VH: B1 VH with R103H, H108V
VL: B1 VL with H33R, H98Y
notes: IgG; also called Ab25
MFI pH 6.0/MFI pH 7.4 [1]: 24.3 | MFI pH 7.4 [2]: 45 MFI | MFI pH 6.0 [3]: 1090 MFI

B11: SAD10318_P01_F02 (ADI-48585) (antibody, V domains shown)
VH: B1 VH with Y101H, H102G, R103H, H108V
VL: B1 VL
notes: IgG; also called Ab14
MFI pH 6.0/MFI pH 7.4 [1]: 8.5 | MFI pH 7.4 [2]: 45 MFI | MFI pH 6.0 [3]: 381 MFI

B12: SAD10318_P02_G04 (ADI-48593) (antibody, V domains shown)
VH: B1 VH with H102G, R103H, F105H, H108V
VL: B1 VL with N31H, H33R, H38Y, H98Y, S99H
notes: IgG; also called Ab158
MFI pH 6.0/MFI pH 7.4 [1]: 39.4 | MFI pH 7.4 [2]: 96 MFI | MFI pH 6.0 [3]: 3780 MFI

B13: SAD10318_P01_D03 (ADI-48588) (antibody, V domains shown)
VH: B1 VH with A100H, H102G, R103H, H108V
VL: B1 VL with K36H, H38Y
notes: IgG; also called Ab58
MFI pH 6.0/MFI pH 7.4 [1]: 83.3 | MFI pH 7.4 [2]: 59 MFI | MFI pH 6.0 [3]: 4940 MFI

B14: SAD10318_P03_D08 (ADI-48604) (antibody, V domains shown)
VH: B1 VH with S75A, A100H
VL: B1 VL with H98Y, H100R
notes: IgG; also called Ab198
MFI pH 6.0/MFI pH 7.4 [1]: 4.7 | MFI pH 7.4 [2]: 43 MFI | MFI pH 6.0 [3]: 199 MFI

B15: SAD10318_P02_H05 (ADI-48599) (antibody, V domains shown)
VH: B1 VH with H102G, R103H, Y104H, H108V
VL: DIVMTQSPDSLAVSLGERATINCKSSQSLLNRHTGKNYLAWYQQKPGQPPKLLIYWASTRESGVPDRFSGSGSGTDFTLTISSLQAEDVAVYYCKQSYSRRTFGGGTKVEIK
notes: IgG; also called Ab185
MFI pH 6.0/MFI pH 7.4 [1]: 2.3 | MFI pH 7.4 [2]: 583 MFI | MFI pH 6.0 [3]: 1320 MFI

B16: SAD10318_P02_B05 (ADI-48596) (antibody, V domains shown)
VH: B1 VH with H102G, Y104H
VL: B1 VL with H38Y, H98Y, H100R
notes: IgG; also called Ab179
MFI pH 6.0/MFI pH 7.4 [1]: 0.6 | MFI pH 7.4 [2]: 828 MFI | MFI pH 6.0 [3]: 500 MFI

B17: SAD10318_P01_G03 (ADI-48590) (antibody, V domains shown)
VH: B1 VH with R98H, H102G, R103H, H108V
VL: B1 VL with K36H, H38Y, H98Y, S99H
notes: IgG; also called Ab91
MFI pH 6.0/MFI pH 7.4 [1]: 60.3 | MFI pH 7.4 [2]: 32 MFI | MFI pH 6.0 [3]: 1950 MFI

B18: SAD10318_P01_F03 (ADI-48589) (antibody, V domains shown)
VH: B1 VH with Y101H, H102G
VL: B1 VL with K36H, H38Y, H98Y
notes: IgG; also called Ab80
MFI pH 6.0/MFI pH 7.4 [1]: 11 | MFI pH 7.4 [2]: 475 MFI | MFI pH 6.0 [3]: 5240 MFI

B19: SAD10318_P01_H01 (ADI-48580) (antibody, V domains shown)
VH: B1 VH with Y101H, H108V
VL: B1 VL with H98Y, S99H
notes: IgG; also called Ab226
MFI pH 6.0/MFI pH 7.4 [1]: 22.5 | MFI pH 7.4 [2]: 41 MFI | MFI pH 6.0 [3]: 933 MFI

B20: SAD10318_P02_C04 (ADI-48592) (antibody, V domains shown)
VH: B1 VH with K13E, Y101H, H108V
VL: B1 VL with K36H, H38Y, H98Y, H100R
notes: IgG; also called Ab125
MFI pH 6.0/MFI pH 7.4 [1]: 1.9 | MFI pH 7.4 [2]: 2990 MFI | MFI pH 6.0 [3]: 5810 MFI

B21: SAD10318_P03_C09 (ADI-48609) (antibody, V domains shown)
VH: B1 VH
VL: B1 VL with H98Y, S99H
notes: IgG; also called Ab205
MFI pH 6.0/MFI pH 7.4 [1]: 9.3 | MFI pH 7.4 [2]: 37 MFI | MFI pH 6.0 [3]: 346 MFI

B22: SAD10318_P01_G01 (ADI-48579) (antibody, V domains shown)
VH: B1 VH with Y101H, H102G, R103H, H108V
VL: B1 VL with N31H, H38Y
notes: IgG; also called Ab215
MFI pH 6.0/MFI pH 7.4 [1]: 6.8 | MFI pH 7.4 [2]: 306 MFI | MFI pH 6.0 [3]: 2070 MFI

B23: SAD10318_P01_E01 (ADI-48577) (antibody, V domains shown)
VH: B1 VH with Y101H, H108V
VL: B1 VL with T34E, H38Y
notes: IgG; also called Ab193
MFI pH 6.0/MFI pH 7.4 [1]: 73.1 | MFI pH 7.4 [2]: 73 MFI | MFI pH 6.0 [3]: 5370 MFI

B24: SAD10318_P02_H04 (ADI-48594) (antibody, V domains shown)
VH: B1 VH
VL: B1 VL with N31H, H33R, K36H, H38Y, H98Y, H100R
notes: IgG; also called Ab169
MFI pH 6.0/MFI pH 7.4 [1]: 3.2 | MFI pH 7.4 [2]: 1320 MFI | MFI pH 6.0 [3]: 4260 MFI

B25: SAD10318_P01_H03 (ADI-48591) (antibody, V domains shown)
VH: B1 VH with R98H, H102G, R103H, H108V
VL: B1 VL with H33R, K36H, H38Y, S71R, H98Y, S99H
notes: IgG; also called Ab102
MFI pH 6.0/MFI pH 7.4 [1]: 31.6 | MFI pH 7.4 [2]: 140 MFI | MFI pH 6.0 [3]: 4430 MFI
